The numbers were not newly measured in article PMC5148012, which cites them from elsewhere.

The series addresses GP1bα (glycocalicin) glycocalicin (extracellular part) (Homo sapiens) (UniProt P07359).

pKd: −log10 of the molar value.

UniProt P07359, sequence (P07359 17-506): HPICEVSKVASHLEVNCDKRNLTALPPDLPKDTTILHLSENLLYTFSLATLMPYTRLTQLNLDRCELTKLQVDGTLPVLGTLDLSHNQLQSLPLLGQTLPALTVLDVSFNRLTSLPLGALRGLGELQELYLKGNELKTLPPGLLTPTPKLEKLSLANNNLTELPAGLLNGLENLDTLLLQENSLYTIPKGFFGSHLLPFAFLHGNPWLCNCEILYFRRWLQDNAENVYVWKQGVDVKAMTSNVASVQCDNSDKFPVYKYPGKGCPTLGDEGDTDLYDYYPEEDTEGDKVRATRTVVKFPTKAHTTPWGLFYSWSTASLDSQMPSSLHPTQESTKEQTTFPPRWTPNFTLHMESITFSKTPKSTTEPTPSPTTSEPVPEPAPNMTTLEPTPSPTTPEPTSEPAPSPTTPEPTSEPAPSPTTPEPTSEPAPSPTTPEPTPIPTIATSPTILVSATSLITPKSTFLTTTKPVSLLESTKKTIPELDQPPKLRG

The pKd is −log10 of the Kd, conventionally taken in molar units. As to HbA (from UniProt P69905), the pKd was 4.35.
